These results are taken from patent US20240228595A1 (YALE UNIVERSITY, published 2024).

The target of assay [1] is T1, SARS-COV-2 RBD-his tag protein (Sino Biological) (SARS-CoV-2, UniProt P0DTC2 319-541).
In assay [2] the target is T1, SARS-COV-2 RBD-his tag protein (Sino …). The source holds these as a separate data set.
For assay [3] the target is unchanged. This is another data set of the same source.

Read-outs that look alike come from different tables or passages of the source.

B1: Clone 16 (Clone6-KiH-Clone2) bispecific antibody (bispecific antibody)
heavy 1: not shown
light 1: DIVLTQSPASLAVSLGQRATISCRASESVDNYGISFMNWFQQTPGQPPKLLIYGSSNQGSGVPARFSGSGSGTDFSLNIHPMEEDDTAMYFCQQSKEVPYTFGGGTKLEIKRTVAAPSVFIFPPSDEQLKSGTASVVCLLNNFYPREAKVQWKVDNALQSGNSQESVTEQDSKDSTYSLSSTLTLSKADYEKHKVYACEVTHQGLSSPVTKSFNRGEC
heavy 2: not shown
light 2: DIVLTQSPASLAVSLGQRATISCRASESVEYYGTSLMQWYQQKPGQPPKVLIYAASNVESGVPARFSGSGSGTDFSLNIHPVEEDDIAMYFCQQSRKVPWTFGGGTKLEIKRSSASTKGPSVFPLAPSSKSTSGGTAALGCLVKDYFPEPVTVSWNSGALTSGVHTFPAVLQSSGLYSLSSVVTVPSSSLGTQTYICNVNHKPSNTKVDKKVEPKSC
In assay [1], B1 yielded a Kd of 2.95 nM, a koff of 0.00461 s⁻¹ and a kon of 1.56e+06 M⁻¹ s⁻¹.

B2: Clone 6 (antibody, V domains shown)
VH: QVQLQQSAAELARPGASVKMSCKASGYTFTSYTMHWVKQRPGQGLEWIGYINPTSGYTEYNQNFKDKTTLTADKSSSTAYMQLNSLTSEDSAVYYCAREGHRVGPAYWGQGTLVTVSA
VL: not shown
In assay [2], B2 yielded a Kd of 0.148 nM, a koff of 0.00056 s⁻¹ and a kon of 3.77e+06 M⁻¹ s⁻¹. In assay [1], this molecule returned a Kd of 2.27 nM, a dissociation rate constant (koff) of 0.00611 s⁻¹ and a kon of 2.69e+06 M⁻¹ s⁻¹.

B3: Clone 2 (antibody, V domains shown)
VH: EVQLQQSGPELVKPGASVKISCKASGYSFTGYSMNWMKQSPEKSLEWIGEINPSTGGTTDNQKFKAKATLTVDKSSSTAYMQLKSLTSEDSAVYYCARSRGDYWGQGTSVTVSS
VL: DIVLTQSPASLAVSLGQRATISCRASESVEYYGTSLMQWYQQKPGQPPKVLIYAASNVESGVPARFSGSGSGTDFSLNIHPVEEDDIAMYFCQQSRKVPWTFGGGTKLEIKR
In assay [3], B3 displayed a dissociation constant Kd of 0.00158 nM, a koff of 1.49e-07 s⁻¹ and a kon of 94500 M⁻¹ s⁻¹. In assay [2], this molecule came in with a Kd of 0.0441 nM, a koff of 7.09e-05 s⁻¹ and a kon of 1.61e+06 M⁻¹ s⁻¹. In assay [1], this molecule yielded a Kd of 1.67 nM, a koff of 0.000853 s⁻¹ and a kon of 511000 M⁻¹ s⁻¹.

B4: Clone 13 (antibody, human IgG1, kappa, V domains shown)
VH: EVQLVESGGGLVQPGGSLRLSCAASGFTFSGYSMNWVRQAPGKGLEWVAEINPSTGGTTDNQKFKARFTISRDNSKNTLYLQMNSLRAEDTAVYYCARSRGDYWGQGTLVTVSS
VL: DIQMTQSPSSLSASVGDRVTITCRASESVEYYGTSLMQWYQQKPGKAPKLLIYAASNVESGVPSRFSGSGSGTDFTLTISSLQPEDFATYYCQQSRKVPWTFGQGTKVEIKR
As for B4, in assay [1], binding was put at a Kd of 4.17 nM, the koff stood at 0.000497 s⁻¹ and the on-rate constant (kon) came out at 119000 M⁻¹ s⁻¹.
